In paper PMC4190115:

Target: His-tagged N-terminal domain (1-165 aa) of matrix protein 1 (M1) of influenza A virus A/WSN/33 (H1N1) (Influenza A virus A/WSN/33 (H1N1)) (UniProt P05777)
Test: crystal structure

His-tagged N-terminal domain (1-165 aa) of matrix protein 1 (M1) of influenza A virus A/WSN/33 (H1N1) (from UniProt P05777 1-165) (domain or fragment)
stoichiometry N: 2
